Entries after “also recorded” stand apart in the source; their conditions may differ.
Legend:
[1] = test system: zebrafish larvae (bone formation); test: Anabolic bone screen in zebrafish larvae; assay type: in vivo; settings: for anabolic effects (promoting bone), dose/response: 3 d.p.f. to 8 d.p.f., range of concentrations
Experimental: A 1 mg/ml stock of parathyroid hormone (PTH) (Sigma) was made in 20 mM NaH2PO4 and 2.13g/L mannitol. A […] stock of cholecalciferol (Vitamin D)(Sigma) was made in dH2O. […]
(§1) Embryos and larvae were fixed in 4% paraformaldehyde (PFA), then labelled with alizarin red as described herein. In vivo labelling was achieved by rearing fish in 0.05% alizarin red in embryo medium.
(§2) Stained larvae were mounted on depression slides and visualised by fluorescence microscopy on a BX51 microscope (Olympus) and images were captured using a ColorView camera and AnalySis software (Olympus). The intensity of and area of alizarin red fluorescence was quantified for each treatment group, with a minimum of 5 samples per group, using colour threshold and area measurements in AnalySis (Olympus). Mean values and standard deviations were calculated using Excel software (Microsoft Office).
In addition to screening for the rescue of osteoporosis, we observed that anabolic bone effects could also be detected.

zebrafish = test: DMSO tolerance of zebrafish; assay type: in vivo; settings: added to the fish water
Description: Moreover, the inventors have discovered that zebrafish are also DMSO (dimethyl sulphoxide) tolerant. This is important as DMSO is used as a solvent to dissolve many drugs. The inventors have established that zebrafish can tolerate 1% DMSO. Thus, a candidate drug or other test substance may be dissolved in DMSO and administered to zebrafish by adding to the fish water to give a final concentration of DMSO of at least up to 1%. This is employed in various preferred aspects and embodiments of the present invention.

[2] = test system: zebrafish larvae with prednisolone-induced osteoporosis; test: Rescue of prednisolone-induced osteoporosis with etidronate in zebrafish larvae; assay type: in vivo
Experimental: 1) Osteoporosis was induced with prednisolone as described above.
2) Etidronic acid (Sigma H6773) was made up as […] stock in embryo medium.
3) Osteoporosis was rescued by co-administration of etidronic acid and prednisolone from 3 d.p.f. to 10 d.p.f.
A 10 mg/ml stock solution of etidronate (Sigma) in embryo medium was used in all prednisolone rescue experiments. The pH of the solution was adjusted to pH 7.5 using NaOH. The stock was stored at 4° C. for a maximum of 2 months. […]. OP was induced by exposure of larvae to 10 ug/ml prednisolone from 3 d.p.f. to 6 d.p.f. At 6 d.p.f., medium containing 10 ug/ml prednisolone was removed and replaced with 10 ug/ml prednisolone in combination with etidronate.
as §1, §2
A dose/response study was performed using larvae exposed to varying doses of etidronate in the presence of prednisolone (at 10 ug/ml) from 3 d.p.f. to 9 d.p.f. Samples were stained with alizarin red and the area of stained tissue was quantified using AnalySis software. The average stained area was calculated from five samples at each concentration and plotted as a mineralization index.

zebrafish larvae = test: Toxicity / viability of zebrafish larvae in embryo medium containing compound
Experimental: For compound screening, a dose of 10 ug/ml prednisolone may be used, although other doses and durations of exposure may also be used.

`C=C1CC[C@H](O)C/C1=C/C=C1\CCC[C@]2(C)[C@@H]([C@H](C)CCCC(C)C)CC[C@@H]12` [Cholecalciferol, cholecalciferol, reference compound] was tested, and the “anabolic effects (promoting bone), dose/response” value [1] was “clear dose/response in relation to promoting bone”.

In the case of `C[S+](C)[O-]` [DMSO, dimethyl sulphoxide], the “DMSO concentration tolerated by zebrafish” value (zebrafish) is reported as 1%.

In the case of `CC(O)(P(=O)(O)O)P(=O)(O)O` [etidronate, Etidronic acid], the “rescue of OP phenotype in wholemount skeletal preparations (amount of staining)” value ([2]; etidronate 10 ug/ml with prednisolone 10 ug/ml) is reported as “rescue is readily observed; also recorded: clear increase in the amount of staining”, the “dose/response, fluorescence intensity in stained bones in vivo” value ([2]; increasing doses of etidronate in the presence of prednisolone) is reported as “correlated with recovery from OP” and the “dose/response, area of stained tissue (mineralization index)” value ([2]; varying doses of etidronate with prednisolone 10 ug/ml, 3 d.p.f. to 9 d.p.f.) is reported as “clear correlation between increasing doses of etidronate and rescue of the OP phenotype”. The viability of larvae (zebrafish larvae; 5 ug/mi etidronic acid co-administered with 10 ug/ml prednisolone) was “viable beyond 10 d.p.f” and the viability of larvae (zebrafish larvae; 10 ug/ml etidronate co-administered with 10 ug/ml prednisolone) was “viable beyond 10 d.p.f”.

B1: parathyroid hormone (peptide, UniProt P01270 32-115, looked up)
Parathyroid hormone: SVSEIQLMHNLGKHLNSMERVEWLRKKLQDVHNFVALGAPLAPRDAGSQRPRKKEDNVLVESHEKSLGEADKADVNVLTKAKSQ
modifications: Parathyroid hormone
notes: parathyroid hormone (PTH) (Sigma)
B1 was tested, and the Summary of effects ([1]; 40 ng/ml, Continuous, 3 d.p.f. to 8 d.p.f) was “Anabolic effect”, the Summary of effects ([1]; 100 ng/ml, Continuous, 3 d.p.f. to 8 d.p.f) was “Mild catabolic” and the Summary of effects ([1]; 200 ng/ml, Brief, 6 hours on 5 d.p.f, effects noted on 8 d.p.f.) was “Strong anabolic”. The Summary of effects ([1]; 200 ng/ml, Continuous, 3 d.p.f. to 8 d.p.f) was “Strong catabolic”, the effect on bone ([1]; 200 ng/ml, administered for 6-8 hours and then removed from the medium) was “anabolic effect” and the effect on bone ([1]; 206 ng/ml, administered continuously from 3 d.p.f to 9 d.p.f.) was “catabolic effect”. For the same molecule, the “anabolic effects (promoting bone), dose/response” value [1] was “clear dose/response in relation to promoting bone” and the effect on bone ([1]; doses up to 100 ng/ml, administered continuously from 3 d.p.f to 9 d.p.f.) was “anabolic effect”.

Source: US20060150259A1, “Model of bone disease amenable to high-throughput screening” (priority 2003, published 2006)
